Experiments:
[1] = Pharmacokinetic profile of TTP-4000 after IV injection; format: in vivo, monkeys; details: single IV bolus 5 mg/kg; plasma; after saturation of ligands; FIG. 11
Method: Following collection, the tubes were placed on wet ice (maximum 30 minutes) until centrifugation under refrigeration (at 2 to 8° C.) at 1500×g for 15 minutes. Each harvested plasma sample was then stored frozen (−70° C.±10° C.) until assayed for RAGE polypeptide using an ELISA at various time-points following the injection, as described in Example 6.
Initially, 50 uL of the RAGE specific monoclonal antibody 1HB1011 at a concentration of 10 ug/mL in 1×PBS pH 7.3 is coated on plates via overnight incubation. When ready for use, plates are washed three times with 300 uL of 1× Imidazole-Tween wash buffer and blocked with 1% BSA. […] The samples are allowed to incubate at room temperature for one hour. After incubation, the plates are plates are washed three times. A Goat Anti-human IgG1 1 (Sigma A33 12) AP conjugate in 1×PBS with 1% BSA is added and allowed to incubate at room temperature for 1 hour. The plates are washed three times. Color was elucidated with paranitrophenylphosphate.

APP transgenic mice = test: Mouse model of AD (APP transgenic mice); format: in vivo
Method: Experiments were performed to evaluate whether TTP-4000 could affect amyloid formation and cognitive dysfunction in a mouse model of AD. The experiments utilized transgenic mice expressing the human Swedish mutant amyloid precursor protein (APP) under the control of the PDGF-B chain promoter. Over time, these mice generate high levels of the RAGE ligand, amyloid beta (Aβ).
The APP mice (male) used in this experiment were designed by microinjection of the human APP gene (with the Swedish and London mutations) into mouse eggs under the control of the platelet-derived growth factor B (PDGF-B) chain gene promoter. The mice were generated on a C57BL/6 background and were developed by Molecular Therapeutics Inc. Animals were fed ad libituin and maintained by brother sister mating. The mice generated from this construct develop amyloid deposits starting at 6 months of age. Animals were aged for 6 months and then maintained for 90 days and sacrificed for amyloid quantification.
APP transgenic mice were administered vehicle or TTP4000 every other day [qod (i.p.)] for 90 days starting at 6 months of age. At the end of the experiment, animals were sacrificed and examined for AP plaque burden in the brain (i.e., plaque number). A 6-month control APP group was used to determine the baseline of amyloid deposits. In addition, at the end of the study, the animals were subjected to behavioral (Morris water maze) analysis. The investigators were blinded to the study compounds. Samples were given to the mice at 0.25 ml/mouse/every other day.
For histological examination, the animals were anesthetized with an intraperitoneal injection (IP) of sodium pentobarbital (50 mg/kg). The animals were transcardially perfused with 4° C., phosphate-buffered saline (PBS) followed by 4% paraformaldehyde. The brains were removed and placed in 4% paraformaldehyde over night. The brains were processed to paraffin and embedded. Ten serial 30-μm thick sections through the brain were obtained. Sections were subjected to primary antibody overnight at 4° C. (Aβ peptide antibody) in order to detect the amyloid deposits in the brain of the transgenic animals (Guo et al., J. Neurosci., 22:5900-5909 (2002)). Sections were washed in Tris-buffered saline (TBS) and secondary antibody was added and incubated for 1 hour at room temperature. After washing, the sections were incubated as instructed in the Vector ABC Elite kit (Vector Laboratories) and stained with […] (DAB). The reactions were stopped in water and cover-slipped after treatment with xylene. The amyloid area in each section was determined with a computer-assisted image analysis system, consisting of a Power Macintosh computer equipped with a Quick Capture frame grabber card, Hitachi CCD camera mounted on an Olympus microscope and camera stand. NIH Image Analysis Software, v. 1.55 was used. The images were captured and the total area of amyloid was determined over the ten sections. A single operator blinded to treatment status performed all measurements. Summing the amyloid volumes of the sections and dividing by the total number of sections was done to calculate the amyloid volume.
For quantitative analysis, an enzyme-linked immunosorbent assay (ELISA) was used to measure the levels of human total Aβ, Aβtotal and Aβ1-42 in the brains of APP transgenic mice (Biosource International., Camarillo, Calif.). Aβtotal and Aβ1-42 were extracted from mouse brains by guanidine hydrochloride and quantified as described by the manufacturer. […]

B1: TTP-4000: four domain RAGE fusion protein (SEQ ID NO: 32): human RAGE amino acids 1-251 linked to CH2 and CH3 domains of human IgG (protein)
chain: MAAGTAVGAWALVLSLWGAVVGAQNITARIGEPLVLKCKGAPKKPPQRLEWKLNTGRTEAWKVLSPQGGGPWDSVARVLPNGSLFLPAVGIQDEGIFRCQAMNRNGKETKSNYRVRVYQIPGKPEIVDSASELTAGVPNKVGTCVSEGSYPAGTLSWHLDGKPLVPNEKGVSVKEQTRRHPETGLFTLQSELMVTPARGGDPRPTFSCSFSPGLPRHRALRTAPIQPRVWEPVPLEEVQLVVEPEGGAVAPPSVFLFPPKPKDTLMISRTPEVTCVVVDVSHEDPEVKFNWYVDGVEVHNAKTKPREEQYNSTYRVVSVLTVLHQDWLNGKEYKCKVSNKALPAPIEKTISKAKGQPREPQVYTLPPSRDELTKNQVSLTCLVKGFYPSDIAVEWESNGQPENNYKTTPPVLDSDGSFFLYSKLTVDKSRWQQGNVFSCSVMHEALHNHYTQKSLSLSPGK
- terminal half-life [1]: greater than 300 hours
- inflammatory cytokines IL-1 and TNF-α (APP transgenic mice; data not shown): can reduce
- Aβ plaques in the brain (APP transgenic mice; treated for 3 months, versus vehicle and human IgG1, FIG. 14A): fewer Aβ plaques
- cognitive dysfunction (Morris water maze) (APP transgenic mice; treated for 3 months, versus vehicle and human IgG1, FIG. 14B): less cognitive dysfunction

Reference: patent publication US7981423B2, “Rage fusion proteins” (Transtech Pharma, Inc., priority 2004, dated 2011)
